Reference: US20170368138A1 (published 2017)

Biological target: U87MG
Assay: flow cytometry, cell binding; human U87MG cells

B1: NOD201M (Fc fusion)
chain: GCPRPRGDNPPLTCSQDSDCLAGCVCGPNGFCGEPRVPITQNPCPPLKECPPCAAPDLLGGPSVFIFPPKIKDVLMISLSPMVTCVVVDVSEDDPDVQISWFVNNVEVHTAQTQTHREDYNSTLRVVSALPIQHQDWMSGKEFKCKVNNRALPSPIEKTISKPRGPVRAPQVYVLPPPAEEMTKKEFSLTCMITGFLPAEIAVDWTSNGRTEQNYKNTATVLDSDGSYFMYSKLRVQKSTWERGSLFACSVVHEGLHNHLTTKTISRSLG
Work on B1 yielded a Kd of 0.7 nM.
